The target in test [1] is fully functional core construct of the rat cardiac sodium channel NaV1.5 (rNaV1.5C) (rat) (UniProt P15389).
Test [2] has the same target. Put plainly: cryo-EM structure; purified rNaV1.5C (~1 mg/ml) mixed with 50 uM LqhIII and purified FGF12b and calmodulin, re-run on Superose-6 in 25 mM imidazole pH 6.0, 150 mM NaCl, 0.006% GDN; peak concentrated to 5 mg/ml; no membrane potential.

In general, stoichiometry N refers to the number of molecules, sites or subunits per partner or assembly.

Sequence of UniProt P15389 (P15389 whole entry): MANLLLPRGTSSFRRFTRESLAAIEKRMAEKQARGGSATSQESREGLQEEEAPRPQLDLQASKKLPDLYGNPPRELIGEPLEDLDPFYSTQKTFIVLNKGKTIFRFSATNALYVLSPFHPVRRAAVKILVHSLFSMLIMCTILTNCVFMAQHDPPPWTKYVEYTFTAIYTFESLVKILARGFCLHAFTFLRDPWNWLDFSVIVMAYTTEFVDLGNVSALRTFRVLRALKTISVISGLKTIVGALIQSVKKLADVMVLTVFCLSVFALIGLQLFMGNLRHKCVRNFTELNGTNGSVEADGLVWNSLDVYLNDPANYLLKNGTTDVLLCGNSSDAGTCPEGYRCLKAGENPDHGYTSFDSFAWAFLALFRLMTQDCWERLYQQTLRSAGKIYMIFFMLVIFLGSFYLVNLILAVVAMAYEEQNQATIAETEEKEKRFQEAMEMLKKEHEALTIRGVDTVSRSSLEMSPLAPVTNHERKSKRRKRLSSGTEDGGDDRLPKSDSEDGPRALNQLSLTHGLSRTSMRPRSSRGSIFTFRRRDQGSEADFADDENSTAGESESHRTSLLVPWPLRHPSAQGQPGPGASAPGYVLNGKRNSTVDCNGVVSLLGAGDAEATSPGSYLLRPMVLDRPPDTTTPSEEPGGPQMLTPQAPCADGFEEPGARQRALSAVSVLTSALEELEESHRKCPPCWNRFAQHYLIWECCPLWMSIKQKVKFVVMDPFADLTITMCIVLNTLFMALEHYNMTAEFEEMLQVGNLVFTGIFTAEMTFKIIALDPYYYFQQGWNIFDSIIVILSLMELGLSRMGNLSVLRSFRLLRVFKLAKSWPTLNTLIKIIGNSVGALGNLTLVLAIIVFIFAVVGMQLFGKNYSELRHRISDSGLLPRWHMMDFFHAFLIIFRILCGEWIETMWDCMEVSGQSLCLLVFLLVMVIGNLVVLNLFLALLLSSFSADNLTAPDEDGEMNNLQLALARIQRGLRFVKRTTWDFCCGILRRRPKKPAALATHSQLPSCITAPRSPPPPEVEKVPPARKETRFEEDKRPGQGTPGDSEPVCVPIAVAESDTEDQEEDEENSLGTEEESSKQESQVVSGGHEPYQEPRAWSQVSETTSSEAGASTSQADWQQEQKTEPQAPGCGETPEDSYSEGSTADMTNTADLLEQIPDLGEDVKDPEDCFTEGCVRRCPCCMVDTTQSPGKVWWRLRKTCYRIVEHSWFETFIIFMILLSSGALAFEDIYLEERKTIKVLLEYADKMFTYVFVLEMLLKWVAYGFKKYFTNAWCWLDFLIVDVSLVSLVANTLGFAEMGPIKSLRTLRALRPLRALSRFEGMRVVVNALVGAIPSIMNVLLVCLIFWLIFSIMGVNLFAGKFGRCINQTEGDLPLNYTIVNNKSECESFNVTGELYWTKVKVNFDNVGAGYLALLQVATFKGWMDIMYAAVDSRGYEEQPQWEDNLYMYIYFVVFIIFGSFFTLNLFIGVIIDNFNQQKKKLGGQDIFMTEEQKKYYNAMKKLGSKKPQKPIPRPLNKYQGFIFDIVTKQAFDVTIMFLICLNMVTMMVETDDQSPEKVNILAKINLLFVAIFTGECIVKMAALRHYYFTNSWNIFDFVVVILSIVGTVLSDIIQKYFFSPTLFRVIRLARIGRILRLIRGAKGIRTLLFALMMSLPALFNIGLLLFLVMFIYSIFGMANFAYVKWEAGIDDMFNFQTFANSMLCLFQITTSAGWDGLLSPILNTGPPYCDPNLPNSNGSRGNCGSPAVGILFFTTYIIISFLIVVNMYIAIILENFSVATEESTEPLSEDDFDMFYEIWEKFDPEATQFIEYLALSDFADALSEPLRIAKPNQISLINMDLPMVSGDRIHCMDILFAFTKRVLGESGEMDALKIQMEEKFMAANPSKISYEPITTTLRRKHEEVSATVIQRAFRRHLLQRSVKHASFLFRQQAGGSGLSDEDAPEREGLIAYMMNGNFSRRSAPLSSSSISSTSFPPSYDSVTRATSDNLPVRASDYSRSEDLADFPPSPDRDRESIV

B1: α-scorpion toxin LqhIII from the deathstalker scorpion Leiurus quinquestriatus hebraeus (natural protein)
chain: VRDGYIAQPENCVYHCFPGSSGCDTLCKEKGGTSGHCGFKVGHGLACWCNALPDNVGIIVEGEKCHS
As for B1, in test [1], the inhibition of fast inactivation: sodium current remaining 6 ms after the depolarizing pulse, whole-cell patch clamp of HEK293S GnTI- cells expressing rNaV1.5C, 1-1000 nM LqhIII came to 11.4 nM and the time course of the block of fast inactivation on perfusion of 100 nM LqhIII, cells held at -120 mV, single exponential fit came out at 11.3 min. The stoichiometry N in test [2] worked out at 1.
